Results published in publication PMC11388019, “Autoregulatory mechanism of enzyme activity by the nuclear localization signal of lysine-specific demethylase 1 [drawing 1]” (The Journal of Biological Chemistry, 2024).
pKd, pKi: −log10 of the molar value.

Columns and labels:
[1] = biological target: ΔN LSD1 (171–852)–CoREST (286–482) complex (human) (UniProt O60341)
[2] = biological target: ΔN LSD1 (171–852)–CoREST (286–482) complex (human) (UniProt O60341); test: enzyme inhibition kinetics (peroxidase-coupled demethylase assay); 0.3 μM ΔN LSD1-CoREST, 50 mM Hepes (Na) pH 7.5, 25 °C; H3K4me2 peptide (1-21) substrate 10-60 μM; NLS 0-10 μM or NLSp∗ 0-100 μM; fit to competitive inhibition; Ki called apparent in the legend
[3] = biological target: biotinylated NT-LSD1 (residues 100–151) (human); test: SPR; biotinylated NT-LSD1 immobilised at 560 RU; ΔN LSD1-CoREST injected at 25-1000 nM, 40 μl/min, in running buffer
[4] = biological target: biotinylated recombinant human nucleosome (unmodified, 147 bp 601 DNA) (human) (UniProt P68431); test: SPR; biotinylated recombinant human nucleosomes (147 bp 601 DNA) immobilised on a streptavidin chip SA at 4000-5000 RU; LSD1-CoREST injected at 5-2000 nM (full length up to 500 nM), 40 μl/min; Biacore 3000, 298 K; running buffer 10 mM Tris, 100 mM NaCl, 1 mM EDTA, 2 mM TCEP, 0.005% Tween 20, pH 7.4; apparent Kd

| Substance | IC50 of inhibition of ΔN LSD1-CoREST demethylation of H3K4me2 nucleosomes (quantitative Western blot, NLS peptide 10-400 μM) [1] [nM] | pKi [2] | pKd [3] | pKd [4] |
| --- | --- | --- | --- | --- |
| NLS peptide (LSD1 aa 107–120) | 30400 | 5.48 | – | – |
| ΔN LSD1 (171–852)–CoREST (286–482) complex (from UniProt O60341 171-852) | – | – | 6.24 | 5.75 |
| full-length LSD1 (1–852)-CoREST (286–482) complex (from UniProt O60341 1-852) | – | – | – | 6.99 |
| phosphomimic NLS peptide (aa 107–120, T110D/S111D) | – | 4.41 | – | – |
